According to patent US20260347476 (published 2026):

B1: RV20 PD-1 arm (antibody, V domains shown)
VH: QVQLVQSGVEVKKPGASVKVSCKASGYTFTNYYMYWVRQAPGQCLEWMGGINPSNGGTNFNEKFKNRVTLTTDSSTTTAYMELKSLQFDDTAVYYCARRDYRFDMGFDYWGQGTTVTVSS
VL: EIVLTQSPATLSLSPGERATLSCRASKGVSTSGYSYLHWYQQKPGQAPRLLIYLASYLESGVPARFSGSGSGTDFTLTISSLEPEDFAVYYCQHSRDLPLTFGCGTKVEIK
B2: RV26 PD-1 arm (antibody, V domains shown)
VH: QVQLVQSGVEVKKPGASVKVSCKASGYTFTNYYMYWVRQAPGQCLEWMGGINPSNGGTNFNEKFKNRVTLTTDSSTTTAYMELKSLQFDDTAVYYCARRDYRFDMGFDYWGQGTTVTVSS
VL: EIVLTQSPATLSLSPGERATLSCRASKGVSTSGYSYLHWYQQKPGQAPRLLIYLASYLESGVPARFSGSGSGTDFTLTISSLEPEDFAVYYCQHSRDLPLTFGCGTKVEIK
B3: RV19 PD-1 arm (antibody, V domains shown)
VH: QVQLVQSGVEVKKPGASVKVSCKASGYTFTNYYMYWVRQAPGQCLEWMGGINPSNGGTNFNEKFKNRVTLTTDSSTTTAYMELKSLQFDDTAVYYCARRDYRFDMGFDYWGQGTTVTVSS
VL: EIVLTQSPATLSLSPGERATLSCRASKGVSTSGYSYLHWYQQKPGQAPRLLIYLASYLESGVPARFSGSGSGTDFTLTISSLEPEDFAVYYCQHSRDLPLTFGCGTKVEI
B4: RV30 IL-15 arm (antibody, V domains shown)
VH: QVQLVQSGAEVKKPGASVKVSCKASGYSFSSFGISWVRQAPGQGLEWLGWISAFNGYTKYAQKFQDRVTMTTDTSTSTAYMELRSLRSDDTAVYYCARDPAAWPLQQSLAWFDPWGQGTMVTVSS
VL: QSVLTQPPSASGTPGQRVTISCSGSTSNLKRNYVYWYQQLPGTAPKLLIYRDRRRPSGVPDRFSGSKSGTSASLAISGLRSEDEADYYCAWYDRELSEWVFGGGTKLTVL
B5: RV37:IL-15 complex (antibody)
chain 1: QVQLVQSGAEVKKPGASVKVSCKASGYSFSSFGISWVRQAPGQGLEWLGWISAFNGYTKYAQKFQDRVTMTTDTSTSTAYMELRSLRSDDTAVYYCARDPAAWPLQQSLAWFDPWGQGTMVTVSS
chain 2: QSVLTQPPSASGTPGQRVTISCSGSTSNLKRNYVYWYQQLPGTAPKLLIYRDRRRPSGVPDRFSGSKSGTSASLAISGLRSEDEADYYCAWYDRELSEWVFGGGTKLTVL
chain 3: not shown
B6: RV31 IL-15 arm (antibody, V domains shown)
VH: QVQLVQSGAEVKKPGASVKVSCKASGYSFSSFGISWVRQAPGQGLEWLGWISAFNGYTKYAQKFQDRVTMTTDTSTSTAYMELRSLRSDDTAVYYCARDPAAWPLQQSLAWFDPWGQGTMVTVSS
VL: QSVLTQPPSASGTPGQRVTISCSGSTSNLKRNYVYWYQQLPGTAPKLLIYRDRRRPSGVPDRFSGSKSGTSASLAISGLRSEDEADYYCAWYDRELSEWVFGGGTKLTVL
B7: RV20:IL-15 complex (antibody)
chain 1: QVQLVQSGAEVKKPGASVKVSCKASGYSFSSFGISWVRQAPGQGLEWLGWISAFNGYTKYAQKFQDRVTMTTDTSTSTAYMELRSLRSDDTAVYYCARDPAAWPLQQSLAWFDPWGQGTMVTVSS
chain 2: QSVLTQPPSASGTPGQRVTISCSGSTSNLKRNYVYWYQQLPGTAPKLLIYRDRRRPSGVPDRFSGSKSGTSASLAISGLRSEDEADYYCAWYDRELSEWVFGGGTKLTVL
chain 3: not shown
B8: RV36 IL-15 arm (antibody, V domains shown)
VH: QVQLVQSGAEVKKPGASVKVSCKASGYSFSSFGISWVRQAPGQGLEWLGWISAFNGYTKYAQKFQDRVTMTTDTSTSTAYMELRSLRSDDTAVYYCARDPAAWPLQQSLAWFDPWGQGTMVTVSS
VL: QSVLTQPPSASGTPGQRVTISCSGSTSNLKRNYVYWYQQLPGTAPKLLIYRDRRRPSGVPDRFSGSKSGTSASLAISGLRSEDEADYYCAWYDRELSEWVFGGGTKLTVL
B9: RV30:IL-15 complex (antibody)
chain 1: QVQLVQSGAEVKKPGASVKVSCKASGYSFSSFGISWVRQAPGQGLEWLGWISAFNGYTKYAQKFQDRVTMTTDTSTSTAYMELRSLRSDDTAVYYCARDPAAWPLQQSLAWFDPWGQGTMVTVSS
chain 2: QSVLTQPPSASGTPGQRVTISCSGSTSNLKRNYVYWYQQLPGTAPKLLIYRDRRRPSGVPDRFSGSKSGTSASLAISGLRSEDEADYYCAWYDRELSEWVFGGGTKLTVL
chain 3: not shown
B10: RV20 IL-15 arm (antibody, V domains shown)
VH: QVQLVQSGAEVKKPGASVKVSCKASGYSFSSFGISWVRQAPGQGLEWLGWISAFNGYTKYAQKFQDRVTMTTDTSTSTAYMELRSLRSDDTAVYYCARDPAAWPLQQSLAWFDPWGQGTMVTVSS
VL: QSVLTQPPSASGTPGQRVTISCSGSTSNLKRNYVYWYQQLPGTAPKLLIYRDRRRPSGVPDRFSGSKSGTSASLAISGLRSEDEADYYCAWYDRELSEWVFGGGTKLTVL

Columns and labels:
[1] = biological target: T1, PD-1 (human, UniProt Q15116); experiment: SPR, protein A capture
[2] = biological target: T1, PD-1; experiment: SPR, anti-human Fc capture, additional production
[3] = biological target: T1, PD-1; experiment: SPR, PD1 surface
[4] = biological target: T1, PD-1; experiment: SPR, protein A capture; remark: listed apart in the source
[5] = biological target: T2, IL-15 (human, UniProt P40933); experiment: SPR, anti-human Fc capture
[6] = biological target: T2, IL-15; experiment: SPR, PD1 capture, additional production
[7] = biological target: T2, IL-15; experiment: SPR, anti-human Fc capture, additional production
[8] = biological target: T2, IL-15; experiment: SPR, PD1 capture
[9] = biological target: T3, IL-15Rbetagamma heterodimer (human, UniProt P14784); experiment: SPR, anti-human Fc capture
T3 chain 1: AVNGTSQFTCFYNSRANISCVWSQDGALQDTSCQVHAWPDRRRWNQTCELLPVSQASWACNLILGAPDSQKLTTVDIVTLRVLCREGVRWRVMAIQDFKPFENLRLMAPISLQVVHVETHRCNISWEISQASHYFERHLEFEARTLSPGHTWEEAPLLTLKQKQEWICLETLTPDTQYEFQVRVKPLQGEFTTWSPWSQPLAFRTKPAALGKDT
T3 chain 2: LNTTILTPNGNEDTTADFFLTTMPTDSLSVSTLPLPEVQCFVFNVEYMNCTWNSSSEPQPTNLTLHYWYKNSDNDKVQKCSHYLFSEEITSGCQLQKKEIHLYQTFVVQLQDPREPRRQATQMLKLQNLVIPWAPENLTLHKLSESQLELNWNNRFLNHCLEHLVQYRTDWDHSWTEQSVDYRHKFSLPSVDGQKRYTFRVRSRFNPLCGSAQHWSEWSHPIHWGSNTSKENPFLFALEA

[10] = biological target: T3, IL-15Rbetagamma heterodimer; experiment: SPR, anti-human Fc capture, IL-15 and PD1 bound
[11] = biological target: T3, IL-15Rbetagamma heterodimer; experiment: SPR, PD1 capture
[12] = biological target: T3, IL-15Rbetagamma heterodimer; experiment: SPR, PD1 capture, additional production

T2 sequence (P40933 49-162): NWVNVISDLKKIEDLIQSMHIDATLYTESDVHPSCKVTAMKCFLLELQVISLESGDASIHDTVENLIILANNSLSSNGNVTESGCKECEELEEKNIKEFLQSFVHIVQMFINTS
T1 sequence (Q15116 25-167): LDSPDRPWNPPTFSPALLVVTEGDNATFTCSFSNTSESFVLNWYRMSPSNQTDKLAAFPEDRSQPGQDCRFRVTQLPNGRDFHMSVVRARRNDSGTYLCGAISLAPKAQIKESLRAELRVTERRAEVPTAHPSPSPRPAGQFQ

| Binder | Kd [5] [nM] | Kd [8] [nM] | Kd [9] [nM] | Kd [11] [nM] | also measured |
| --- | --- | --- | --- | --- | --- |
| B1 | – | – | – | – | Kd [1]: 269 nM; Kd [2]: 3.99 nM; Kd [3]: 17.2 nM |
| B2 | – | – | – | – | Kd [3]: 2.19 nM |
| B3 | – | – | – | – | binding result [4]: no binding |
| B4 | 0.077 | 0.452 | – | – | Kd [6]: 0.85 nM; Kd [7]: 0.0664 nM |
| B5 | – | – | 0.986 | 0.693 | Kd [10]: 0.848 nM |
| B6 | 0.18 | 0.717 | – | – | – |
| B7 | – | – | 0.852 | 0.667 | Kd [12]: 0.726 nM |
| B8 | 0.116 | 0.111 | – | – | – |
| B9 | – | – | 0.849 | 0.828 | Kd [10]: 0.706 nM; Kd [12]: 0.665 nM |
| B10 | 0.0519 | – | – | – | Kd [6]: 0.169 nM; Kd [7]: 0.0531 nM |
